Data as given in patent US20240059759A1.
Where a chain is given by its changes, count along the chain named. Like-named read-outs stand apart in the source and are kept apart here.

What was measured:
[1] = molecular target: SARS-CoV-2 Spike RBD-His Tag, Sino Biological (SARS-CoV-2)
[2] = molecular target: SARS-CoV-2 Spike RBD-His Tag, Sino Biological (SARS-CoV-2); remark: listed apart in the source
[3] = molecular target: SARS-CoV-2 Spike RBD-His Tag, Sino Biological (SARS-CoV-2); remark: listed apart in the source
[4] = molecular target: SARS-CoV-2 Spike RBD-His Tag, Sino Biological (SARS-CoV-2); remark: listed apart in the source
[5] = molecular target: SARS-CoV-2 Spike RBD-His Tag, Sino Biological (SARS-CoV-2); remark: listed apart in the source
[6] = molecular target: SARS-CoV-2 Spike RBD-His Tag, Sino Biological (SARS-CoV-2); remark: listed apart in the source
[7] = molecular target: CoV-2 (SARS-CoV-2)
[8] = molecular target: CoV-2 (SARS-CoV-2); remark: listed apart in the source
[9] = molecular target: CoV-2 (SARS-CoV-2); remark: listed apart in the source
[10] = molecular target: CoV-2 (SARS-CoV-2); remark: listed apart in the source
[11] = molecular target: CoV-2 (SARS-CoV-2); remark: listed apart in the source

B1: vhh_tstrep_sars2_pjl1_L_74 (VHH)
VHH: QVQLQESGGGLVQAGGSLRLSCAASGRTFSEYAMGWFRQAPGKEREFVATISWSGGATYQTDSVKGRFTISRDNAKNTVYLQMNSLKPDDTAVYYCAAAGLGTVVSEWDYDYDYWGQGTQVTVSS
xmid (log10) [1]: -0.787 | xmid (log10) [2]: -0.413

B2: vhh_tstrep_sars2_pjl1_L_99 (VHH)
VHH: B1 VHH with Q60Y, D109A, Y114A
xmid (log10) [3]: -0.384 | xmid (log10) [4]: -0.202

B3: vhh_tstrep_sars2_pjl1_L_145 (VHH)
VHH: B1 VHH with W53L, Q60H
xmid (log10) [5]: 0.562 | xmid (log10) [6]: 0.668

B4: vhh_tstrep_sars2_pjl1_L_47 (VHH)
VHH: B1 VHH with A57S, Q60Y, Y112A
xmid (log10) [7]: 0.716 | xmid (log10) [8]: -0.708 | xmid (log10) [9]: 1.45

B5: vhh_tstrep_sars2_pjl1_L_79 (VHH)
VHH: B1 VHH with Q60T
xmid (log10) [1]: -1.02 | xmid (log10) [2]: -1.01

B6: vhh_tstrep_sars2_pjl1_L_35 (VHH)
VHH: B1 VHH with A57S, Q60Y, A98G
xmid (log10) [10]: -0.501 | xmid (log10) [7]: 0.355 | xmid (log10) [11]: 0.231
